The values below come from publication PMC3750193, “Disassembly of All SNARE Complexes by N-Ethylmaleimide-sensitive Factor (NSF) Is Initiated by a Conserved 1:1 Interaction between α-Soluble NSF Attachment Protein (SNAP) and SNARE Complex*^([image sbox.jpg])” (The Journal of Biological Chemistry, 2013).

The target in assay [1] is T1, VAMP7-syntaxin1-SNAP25 ternary SNARE complex, labeled with Oregon Green 488 (rat, UniProt Q9JHW5 1-190; P32851 1-265; P60881-2 1-206, C21S | C56V | C145S | S249C | K253C, Oregon Green 488 (maleimide) on cysteines; the labeled endogenous and mutant cysteines are shown in Figure 1A).
T1 construct: VAMP7, rat, residues 1-190; syntaxin1A, rat, residues 1-265; SNAP25A, rat; Removal of the His6 tag is told only for α-SNAP; also called VAMP7(1–190)-C21S/C56V-syntaxin1A(1–265)-C145S/S249C/K253C-SNAP25A; source: E. coli BL21(DE3), coexpressed, purified (Ni-NTA, Superdex 200); copies: + +
Briefly: other fluorescence titration; change in Oregon Green 488 fluorescence intensity of the labeled SNARE complex as a function of α-SNAP concentration; fit y = Fmax·x/(KD + x); three independent experiments. The conditions noted are these: both partners purified.

Assay [2] deals with T2, ^ΔNVAMP7-^ΔNsyntaxin1-SNAP25 core complex (rat, UniProt Q9JHW5 119-190; P32851 191-265; P60881-2 1-206, S249C | K253C).
T2 construct: VAMP7, rat, residues 119-190; syntaxin1A, rat, residues 191-265; the construct's printed name also holds C145S, which lies outside 191-265; SNAP25A, rat; also called ^ΔNSNARE complex; core of the VAMP7-syntaxin1-SNAP25 SNARE complex (without the N-terminal domains); source: E. coli, coexpressed, purified; copies: + +
As to the kind of experiment: SEC-MALS; 30 μM SNARE complex and 30 μM α-SNAP (1:1 mixture); WTC-030S5 column; 20 mM Tris-HCl (pH 8.0), 50 mM NaCl, 0.1 mM TCEP. The conditions noted are these: both partners purified.

T1 sequence (Q9JHW5 1-190 C21S/C56V, chain 1 of 3): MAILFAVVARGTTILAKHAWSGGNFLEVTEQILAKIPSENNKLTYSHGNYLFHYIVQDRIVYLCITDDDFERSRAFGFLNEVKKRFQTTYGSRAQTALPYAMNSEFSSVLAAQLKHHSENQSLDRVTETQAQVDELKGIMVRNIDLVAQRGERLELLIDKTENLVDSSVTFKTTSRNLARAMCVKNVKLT
T1 sequence (P32851 1-265 C145S/S249C/K253C, chain 2 of 3): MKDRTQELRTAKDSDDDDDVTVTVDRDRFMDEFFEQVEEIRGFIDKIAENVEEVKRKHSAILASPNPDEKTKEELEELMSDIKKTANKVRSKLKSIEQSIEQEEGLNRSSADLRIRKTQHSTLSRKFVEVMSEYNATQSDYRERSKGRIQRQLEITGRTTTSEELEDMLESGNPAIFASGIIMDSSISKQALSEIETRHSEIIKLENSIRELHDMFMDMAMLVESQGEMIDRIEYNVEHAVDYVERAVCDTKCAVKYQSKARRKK
T1 sequence (P60881 other isoform, or with tags, fused parts or gaps with the stated changes, chain 3 of 3): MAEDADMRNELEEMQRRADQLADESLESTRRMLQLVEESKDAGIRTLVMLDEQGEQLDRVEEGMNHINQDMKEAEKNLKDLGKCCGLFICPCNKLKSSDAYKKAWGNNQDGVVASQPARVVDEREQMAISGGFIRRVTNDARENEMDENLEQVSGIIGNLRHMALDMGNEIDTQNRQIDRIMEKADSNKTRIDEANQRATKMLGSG
T2 sequence (Q9JHW5 119-190, stated change not applied, chain 1 of 3): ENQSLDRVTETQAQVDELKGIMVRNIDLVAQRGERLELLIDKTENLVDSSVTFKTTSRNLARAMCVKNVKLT
T2 sequence (P32851 191-265 S249C/K253C, chain 2 of 3): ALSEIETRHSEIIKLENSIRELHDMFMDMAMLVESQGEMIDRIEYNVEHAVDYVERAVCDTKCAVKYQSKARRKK
T2 sequence (P60881 other isoform, or with tags, fused parts or gaps S249C | K253C | S249C | K253C | mutant, chain 3 of 3): as the sequence (P60881 other isoform, or with tags, fused parts or gaps with the stated changes, chain 3 of 3) above

B1: α-soluble NSF attachment protein (α-SNAP) (natural protein, rat, UniProt P54921 1-295, looked up)
chain: MDTSGKQAEAMALLAEAERKVKNSQSFFSGLFGGSSKIEEACEIYARAANMFKMAKNWSAAGNAFCQAAQLHLQLQSKHDAATCFVDAGNAFKKADPQEAINCLMRAIEIYTDMGRFTIAAKHHISIAEIYETELVDVEKAIAHYEQSADYYKGEESNSSANKCLLKVAGYAAQLEQYQKAIDIYEQVGTSAMDSPLLKYSAKDYFFKAALCHFCIDMLNAKLAVQKYEELFPAFSDSRECKLMKKLLEAHEEQNVDSYTESVKEYDSISRLDQWLTTMLLRIKKTIQGDEEDLR
notes: α-SNAP, rat; His6 tag removed with tobacco etch virus protease; source: E. coli BL21(DE3), purified (Ni-NTA, Superdex 200)
Regarding B1, the binding result in assay [1] was “binds”. Further, the “stoichiometry N” value in assay [2] is 1 α-SNAP per SNARE complex.
